# Literature values as cited in paper PMC5911825.
# Molecular target: Cys797 (UniProt position 797, LMPFGCLLDYV)
# Test: other (described only as 'titration experiments')
# Conditions: wild-type EGFR; ligand state not stated
substance,measurement,value
"Epidermal growth factor receptor (EGFR), wild type (Homo sapiens)",pKa,5.5
